According to patent publication US20140120555A1 (PIERRE FABRE MEDICAMENT, published 2014):

What was measured:
[1] = target: T1, Recombinant human FcγRIIIA variant V [CD16a], Gln17-Gln208 with C-terminal 6-His tag (human, UniProt P08637 17-208); assay: SPR (Biacore X): h-FcγRIIIA injected over c515H7 Mab immobilized on a CM4 sensorchip; heterogeneous ligand model, major component (81%)
T1 construct: range 17-208; 'variant V' is given without a position, so no substitution is written; also called h-FcγRIIIA
T1 sequence (P08637 other isoform, or with tags, fused parts or gaps mutant limits assumed, form in doubt): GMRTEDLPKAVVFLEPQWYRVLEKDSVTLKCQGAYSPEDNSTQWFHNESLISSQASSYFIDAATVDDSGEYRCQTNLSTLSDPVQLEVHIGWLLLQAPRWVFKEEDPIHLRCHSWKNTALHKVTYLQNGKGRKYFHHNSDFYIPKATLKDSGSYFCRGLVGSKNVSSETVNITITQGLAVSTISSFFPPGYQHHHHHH
Experimental: (§1) 2017 RU of c515H7 Mab were immobilized using the amine coupling kit chemistry on the second flowcell (FC2) of a CM4 sensorchip. The first flowcell (FC1) activated by NHS and EDC mixture and des-activated by ethanolamine served as the reference surface to check and subtract the non specific interaction between the analyte (Fc gamma receptors) and the sensorchip matrix.
(§2) The kinetic experiments were carried out at 25° Celsius at a flow rate of 30 μl/min. The HBS-EP buffer was used either as the running buffer or for the preparation of analyte solutions. The analyte solutions were injected during 90 seconds (association phase) with a 90 seconds delay (dissociation phase). An injection of running buffer as analyte was used as a double reference. All the sensorgrams were corrected by this double reference sensorgram.
(§3) After each injection of the analyte, the sensorchip was regenerated by injection of 20 mM NaOH, 75 mM NaCl solution.

[2] = target: T1, Recombinant human FcγRIIIA variant V …; assay: SPR (Biacore X): h-FcγRIIIA injected over c515H7 Mab immobilized on a CM4 sensorchip; Langmuir model
Experimental: as §1, §2, §3

[3] = target: T2, Recombinant mouse FcγRI [CD64], Gln25-Pro297 with C-terminal 6-His tag (mouse, UniProt P26151 25-297); assay: SPR (Biacore X), Mab on CM4 chip, m-FcγRI as analyte, heterogeneous ligand model, major component; major component (81%), higher value
T2 construct: range 25-297; Soluble form bought from R&D Systems; also called m-FcγRI
T2 sequence: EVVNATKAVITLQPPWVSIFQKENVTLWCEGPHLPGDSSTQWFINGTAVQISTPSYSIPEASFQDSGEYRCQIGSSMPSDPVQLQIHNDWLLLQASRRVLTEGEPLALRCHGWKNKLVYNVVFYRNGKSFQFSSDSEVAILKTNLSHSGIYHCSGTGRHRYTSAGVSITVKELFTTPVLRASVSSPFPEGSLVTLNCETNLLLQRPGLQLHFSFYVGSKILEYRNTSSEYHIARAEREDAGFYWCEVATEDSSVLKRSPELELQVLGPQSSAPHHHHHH
Experimental: as §1, §2
According to this model, the c515H7 Mab Fc domain may be regarded as a mixture of two components.

[4] = target: T2, Recombinant mouse FcγRI [CD64], …; assay: SPR (Biacore X): m-FcγRI injected over hz515H7VH1D76NVL2 Mab immobilized on a CM4 sensorchip; heterogeneous ligand model, minor component (18%)
Experimental: as §1, with “1964” for “2017”, “hz515H7VH1D76NVL2” for “c515H7”
as §2
(§4) After each injection of the analyte, the sensorchip was regenerated by injection of either 20 mM NaOH solution after h-FcγRI and m-FcγRIII or 10 mM NaOH after h-FcγRIIIA and m-FcγRI.

[5] = target: T3, Recombinant mouse FcγRIII [CD16], Ala31-Thr215 with C-terminal 10-His tag (mouse, UniProt P08508 31-215); assay: SPR (Biacore X), Mab on CM4 chip, m-FcγRIII as analyte, Langmuïr model; higher of the two Langmuïr-fit values
T3 construct: Soluble form bought from R&D Systems; also called m-FcγRIII
T3 sequence: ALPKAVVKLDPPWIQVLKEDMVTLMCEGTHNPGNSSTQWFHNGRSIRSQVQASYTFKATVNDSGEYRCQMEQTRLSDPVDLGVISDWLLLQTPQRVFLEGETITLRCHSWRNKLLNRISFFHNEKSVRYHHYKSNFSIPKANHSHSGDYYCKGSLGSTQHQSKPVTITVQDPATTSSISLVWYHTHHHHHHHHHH
Experimental: as §1, with “1964” for “2017”, “hz515H7VH1D76NVL2” for “c515H7”
as §2
Using the Langmuïr model the constant of dissociation was around 17 and 18 nM.

[6] = target: T2, Recombinant mouse FcγRI [CD64], …; assay: SPR (Biacore X): m-FcγRI injected over hz515H7VH1D76NVL2 Mab immobilized on a CM4 sensorchip; heterogeneous ligand model, major component (82%)
Experimental: as §1, with “1964” for “2017”, “hz515H7VH1D76NVL2” for “c515H7”
as §2, §4

[7] = target: T1, Recombinant human FcγRIIIA variant V …; assay: SPR (Biacore X): h-FcγRIIIA injected over hz515H7VH1D76NVL2 Mab immobilized on a CM4 sensorchip; heterogeneous ligand model, minor component (21%)
Experimental: as §1, with “1964” for “2017”, “hz515H7VH1D76NVL2” for “c515H7”
as §2
Sensorgrams obtained with h-FcγRIIIA [FIG. 16] were clearly not fitted by the Langmuïr model (Chi2/Rmax>20%). […] According to this model, the hz515H7VH1D76NVL2 Mab Fc domain may be regarded as a mixture of two components. […] According to the literature, the heterogeneity observed with h-FcγRIIIA was probably linked to the glycosylation heterogeneity on the Mab Fc domain.

[8] = target: T2, Recombinant mouse FcγRI [CD64], …; assay: SPR (Biacore X), Mab on CM4 chip, m-FcγRI as analyte, heterogeneous ligand model, minor component
Experimental: as §1, with “1964” for “2017”, “hz515H7VH1D76NVL2” for “c515H7”
as §2, §4

[9] = target: T3, Recombinant mouse FcγRIII [CD16], …; assay: SPR (Biacore X): m-FcγRIII injected over hz515H7VH1D76NVL2 Mab immobilized on a CM4 sensorchip; heterogeneous ligand model, major component (66%)

B1: chimeric antibody c515H7 (antibody, human IgG1, kappa)
heavy: not shown
light: DIVMSQSPSSLAVSAGEKVTMSCKSSQSLFNSRTRKNYLAWYQQKPGQSPKLLIYWASARDSGVPARFTGSGSETYFTLTISRVQAEDLAVYYCMQSFNLRTFGGGTKLEIKRTVAAPSVFIFPPSDEQLKSGTASVVCLLNNFYPREAKVQWKVDNALQSGNSQESVTEQDSKDSTYSLSSTLTLSKADYEKHKVYACEVTHQGLSSPVTKSFNRGEC
notes: Human IgG1/kappa constant domains; also called c515H7 Mab; chimeric 515H7
B1 gave a Kd [1] of 395 nM, a koff [1] of 0.185 s⁻¹ and a kon [1] of 468000 M⁻¹ s⁻¹. It also gave a Kd [2] of 63.8 nM, a koff [2] of 0.0263 s⁻¹ and a kon [2] of 412000 M⁻¹ s⁻¹. For the same binder, the Kd [3] was roughly 450 nM.

B2: humanized antibody Hz515H7 VH1 D76N VL2 (antibody, human IgG1, kappa)
heavy: not shown
light: DIVMTQSPSSLAVSLGERATMSCKSSQSLFNSRTRKNYLAWYQQKPGQSPKLLIYWASARDSGVPARFTGSGSETYFTLTISRVQAEDLAVYYCMQSFNLRTFGQGTKVEIKRTVAAPSVFIFPPSDEQLKSGTASVVCLLNNFYPREAKVQWKVDNALQSGNSQESVTEQDSKDSTYSLSSTLTLSKADYEKHKVYACEVTHQGLSSPVTKSFNRGEC
notes: IgG1/kappa; also called hz515H7VL2; hz515H7-1
B2 gave a Kd [4] of 90.9 nM, a koff [4] of 0.022 s⁻¹ and a kon [4] of 242000 M⁻¹ s⁻¹. The Kd [5] was roughly 18 nM, the Kd [6] was 76.8 nM and the koff [6] was 0.106 s⁻¹. It also gave a kon [6] of 1.38e+06 M⁻¹ s⁻¹, a Kd [7] of 29.3 nM and a koff [7] of 0.0155 s⁻¹. It also gave a kon [7] of 529000 M⁻¹ s⁻¹, a Kd [8] of roughly 90 nM and a Kd [9] of 0.2 nM. The koff [9] was 3.7e-05 s⁻¹ and the kon [9] was 178000 M⁻¹ s⁻¹.
